US20140087995A1 (published 2014)
Numbered stars: 1 amine (or outer) side, 2 acyl side, 3 side chain; on linkers, the order of the positions; unused ones are H or OH. Bridge positions count the residues as written; N and C are the ends. Square brackets hold non-standard residues; d marks the D form. Side chains are listed from the residue outwards. Ends that are not written are not given here. * marks the point of attachment. C20 diacid = O=C(O)CCCCCCCCCCCCCCCCCCC(=O)*; γGlu = O=C(O)[C@H](CCC(=O)[*:2])N[*:1]

T1: human calcitonin receptor (human, UniProt P30988 25-474)
T1 construct: whole, on cells; Membranes in a scintillation proximity assay (Assay VII); also called hCTR; hCT
T1 sequence (looked up): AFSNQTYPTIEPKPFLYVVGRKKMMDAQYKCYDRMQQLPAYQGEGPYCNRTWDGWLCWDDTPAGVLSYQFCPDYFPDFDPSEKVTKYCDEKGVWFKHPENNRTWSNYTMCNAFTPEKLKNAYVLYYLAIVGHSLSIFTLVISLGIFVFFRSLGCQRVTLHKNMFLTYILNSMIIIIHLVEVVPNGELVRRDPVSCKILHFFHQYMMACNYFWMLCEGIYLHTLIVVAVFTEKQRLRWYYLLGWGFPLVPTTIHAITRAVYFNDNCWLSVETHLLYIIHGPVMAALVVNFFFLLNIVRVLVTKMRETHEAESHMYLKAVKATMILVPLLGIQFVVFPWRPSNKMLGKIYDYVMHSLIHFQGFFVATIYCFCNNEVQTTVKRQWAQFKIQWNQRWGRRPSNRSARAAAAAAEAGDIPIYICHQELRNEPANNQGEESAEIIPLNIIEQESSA

T2: human amylin receptor (amylin 3(a) receptor: human calcitonin receptor with RAMP-3) (human, UniProt P30988 25-474; O60896 24-148)
T2 sequence (looked up) 1: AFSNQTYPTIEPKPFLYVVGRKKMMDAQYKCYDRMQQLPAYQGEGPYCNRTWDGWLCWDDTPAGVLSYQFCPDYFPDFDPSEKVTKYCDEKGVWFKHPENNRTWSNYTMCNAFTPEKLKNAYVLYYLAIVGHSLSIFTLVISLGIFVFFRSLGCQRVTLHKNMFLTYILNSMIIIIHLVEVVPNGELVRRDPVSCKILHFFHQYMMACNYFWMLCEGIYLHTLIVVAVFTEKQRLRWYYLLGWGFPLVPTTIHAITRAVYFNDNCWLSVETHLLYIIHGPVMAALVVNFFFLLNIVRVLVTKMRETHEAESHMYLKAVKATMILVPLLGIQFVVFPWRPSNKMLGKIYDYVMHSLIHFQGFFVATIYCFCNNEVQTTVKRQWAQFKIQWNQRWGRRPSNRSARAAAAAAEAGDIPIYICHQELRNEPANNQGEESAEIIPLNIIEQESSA
T2 sequence (looked up) 2: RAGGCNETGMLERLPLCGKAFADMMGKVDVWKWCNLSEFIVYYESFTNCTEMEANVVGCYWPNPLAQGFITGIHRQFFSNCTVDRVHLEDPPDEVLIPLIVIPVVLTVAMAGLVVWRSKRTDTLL

T3: human calcitonin receptor (human, UniProt P30988 25-474)
T3 sequence (looked up): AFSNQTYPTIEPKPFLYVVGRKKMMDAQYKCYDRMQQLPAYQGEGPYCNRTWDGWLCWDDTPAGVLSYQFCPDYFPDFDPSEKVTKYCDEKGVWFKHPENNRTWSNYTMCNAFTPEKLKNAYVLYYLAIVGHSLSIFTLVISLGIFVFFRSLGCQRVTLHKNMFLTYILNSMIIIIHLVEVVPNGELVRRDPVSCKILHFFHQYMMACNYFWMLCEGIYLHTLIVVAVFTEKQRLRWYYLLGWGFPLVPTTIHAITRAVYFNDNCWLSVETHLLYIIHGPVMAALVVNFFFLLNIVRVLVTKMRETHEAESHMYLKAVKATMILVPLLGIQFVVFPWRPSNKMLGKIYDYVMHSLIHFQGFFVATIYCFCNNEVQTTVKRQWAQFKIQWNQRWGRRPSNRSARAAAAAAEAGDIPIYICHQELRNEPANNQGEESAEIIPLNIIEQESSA


Tests used:
[1] = molecular target: T1, human calcitonin receptor; experiment: SPA competition binding, displacement of 125I-calcitonin from membranes with human calcitonin receptor (Assay VII)
Protocol: Membranes were prepared in the following way; the cells were rinsed with PBS and incubated with Versene for approximately 5 min before harvesting. The cells were flushed with PBS and the cell-suspension was centrifuged for 5 min at 1000 rpm. Cells were homogenized (Ultrathurrax) in a buffer containing 20 mM Na-HEPES and 10 mM EDTA (pH 7.4) and centrifuged at 20.000 rpm for 15 min. The resulting pellet was resuspended, homogenized and centrifuged (20.000 rpm, 15 min) in a buffer containing 20 mM Na-HEPES and 0.1 mM EDTA (pH 7.4, buffer 2). The resulting pellet was resuspended in buffer 2 and protein concentration was measured (BCA protein Assay, Pierce). The homogenate was kept cold during the whole procedure. The membranes were kept at −80° C. until use. Assay was performed in a 384 well Optiplate (PerkinElmer) in a total volume of 40 ul. Membranes were mixed with SPA beads. Final concentration of membranes 35 ng/μL final and Final concentration of SPA beads was 0.05 mg/well. Test-compounds were dissolved in DMSO and further diluted in assay buffer (50 mM Hepes, pH 7.4, 1 mM CaCl2, 5 mM MgCl₂, 0.1% OA and 0.02% Tween20). […] The final mixture was incubated for 120 min with shaking at 400 rpm at 25° C. prior to centrifugation (1500 rpm, 10 min). Samples were analyzed on TopCounter™ (Packard). The […] was calculated using (one site binding competition analysis) GraphPad Prism5 as a measure of receptor affinity.

[2] = molecular target: T2, human amylin receptor (amylin 3(a) …); experiment: cell-based or functional assay
[3] = molecular target: T3, human calcitonin receptor; experiment: cell-based or functional assay
[4] = molecular target: T2, human amylin receptor (amylin 3(a) …); experiment: SPA competition, displacement of 125I-rat amylin from membranes of BHK cells with the human amylin 3(a) receptor
Protocol: The binding assay was performed using scintillation proximity assay (SPA) beads (RPNQ0001) from PerkinElmer and cell membranes from the Amylin 3(a)/CRE-luc cells (as described in Assay (II)) were used. Membranes were prepared in the following way; the cells were rinsed with PBS and incubated with Versene for approximately 5 min before harvesting. The cells were flushed with PBS and the cell-suspension was centrifuged for 5 min at 1000 rpm. Cells were homogenized (ultrathurrax) in a buffer containing 20 mM Na-HEPES and 10 mM EDTA (pH 7.4) and centrifuged at 20.000 rpm for 15 min. The resulting pellet was resuspended, homogenized and centrifuged (20.000 rpm, 15 min) in a buffer containing 20 mM Na-HEPES and 0.1 mM EDTA (pH 7.4, buffer 2). The resulting pellet was resuspended in buffer 2 and protein concentration was measured (BCA protein Assay, Pierce). The homogenate was kept cold during the whole procedure. The membranes were kept at −80° C. until use. The assay was performed in a 384 well Optiplate (PerkinElmer) in a total volume of 40 ul. Membranes were mixed with SPA beads. Final concentration of membranes 35 ng/μL final and SPA beads was 0.05 mg/well. Test-compounds were dissolved in DMSO and further diluted in assay buffer (50 mM Hepes, pH 7.4, 1 mM CaCl2, 5 mM MgCl₂, 0.1% OA and 0.02% Tween20). […] The final mixture was incubated with shaking at 400 rpm for 120 min at 25° C. prior to centrifugation (1500 rpm, 10 min). Samples were analyzed on TopCounter™ (Packard). The IC₅₀ was calculated using (one site binding competition analysis) GraphPad Prism5 as a measure of receptor affinity.

Row | Binder | IC50 [1] [nM] | hAmylin-R funct. EC50 [2] [nM] | Ratio hCT/hAmylin funct. [3] | hCTR funct. EC50 [3] [nM] | IC50 [4] [nM]
1 | K([γGlu-γGlu-C20 diacid])CNTATCATQRLA[dD]FLRHSSPNFGAIPSSTNVGSRTY-NH2 (disulfide 2-7 (inferred)) | 112 | – | – | – | –
2 | {C20 diacid-γGlu}-KCNTATCATQRLAEFLRHSSPNFGPILPPTNVGSNTP-NH2 (disulfide 2-7; SMILES CC[C@H](C)[C@H](NC(=O)[C@@H]1CCCN1C(=O)CNC(=O)[C@H](Cc1ccccc1)NC(=O)[C@H](CC(N)=O)NC(=O)[C@@H]1CCCN1C(=O)[C@H](CO)NC(=O)[C@H](CO)NC(=O)[C@H](Cc1c[nH]cn1)NC(=O)[C@H](CCCNC(=N)N)NC(=O)[C@H](CC(C)C)NC(=O)[C@H](Cc1ccccc1)NC(=O)[C@H](CCC(=O)O)NC(=O)[C@H](C)NC(=O)[C@H](CC(C)C)NC(=O)[C@H](CCCNC(=N)N)NC(=O)[C@H](CCC(N)=O)NC(=O)[C@@H](NC(=O)[C@H](C)NC(=O)[C@@H]1CSSC[C@H](NC(=O)[C@H](CCCCN)NC(=O)CC[C@H](NC(=O)CCCCCCCCCCCCCCCCCCC(=O)O)C(=O)O)C(=O)N[C@@H](CC(N)=O)C(=O)N[C@@H]([C@@H](C)O)C(=O)N[C@@H](C)C(=O)N[C@@H]([C@@H](C)O)C(=O)N1)[C@@H](C)O)C(=O)N[C@@H](CC(C)C)C(=O)N1CCC[C@H]1C(=O)N1CCC[C@H]1C(=O)N[C@H](C(=O)N[C@@H](CC(N)=O)C(=O)N[C@H](C(=O)NCC(=O)N[C@@H](CO)C(=O)N[C@@H](CC(N)=O)C(=O)N[C@H](C(=O)N1CCC[C@H]1C(N)=O)[C@@H](C)O)C(C)C)[C@@H](C)O, also called compound 4) | – | 0.06 | 1.2 | 0.07 | 0.321
3 | {C20 diacid-γGlu}-KCNTATCATQRLAEFLRHSSPNFGAILPSTNVGSETY-NH2 (disulfide 2-7, also called compound 33) | – | 0.243 | 2.2 | 0.528 | 0.915
4 | {C20 diacid-γGlu}-KCNTATCATQRLAEFLRHSSPNFGAPLSSTNVGSNTY-NH2 (disulfide 2-7; SMILES CC(C)C[C@H](NC(=O)[C@H](CCCNC(=N)N)NC(=O)[C@H](CCC(N)=O)NC(=O)[C@@H](NC(=O)[C@H](C)NC(=O)[C@@H]1CSSC[C@H](NC(=O)[C@H](CCCCN)NC(=O)CC[C@H](NC(=O)CCCCCCCCCCCCCCCCCCC(=O)O)C(=O)O)C(=O)N[C@@H](CC(N)=O)C(=O)N[C@@H]([C@@H](C)O)C(=O)N[C@@H](C)C(=O)N[C@@H]([C@@H](C)O)C(=O)N1)[C@@H](C)O)C(=O)N[C@@H](C)C(=O)N[C@@H](CCC(=O)O)C(=O)N[C@@H](Cc1ccccc1)C(=O)N[C@@H](CC(C)C)C(=O)N[C@@H](CCCNC(=N)N)C(=O)N[C@@H](Cc1c[nH]cn1)C(=O)N[C@@H](CO)C(=O)N[C@@H](CO)C(=O)N1CCC[C@H]1C(=O)N[C@@H](CC(N)=O)C(=O)N[C@@H](Cc1ccccc1)C(=O)NCC(=O)N[C@@H](C)C(=O)N1CCC[C@H]1C(=O)N[C@@H](CC(C)C)C(=O)N[C@@H](CO)C(=O)N[C@@H](CO)C(=O)N[C@H](C(=O)N[C@@H](CC(N)=O)C(=O)N[C@H](C(=O)NCC(=O)N[C@@H](CO)C(=O)N[C@@H](CC(N)=O)C(=O)N[C@H](C(=O)N[C@@H](Cc1ccc(O)cc1)C(N)=O)[C@@H](C)O)C(C)C)[C@@H](C)O, also called compound 7) [N^α1-[(4S)-4-carboxy-4-(19-carboxynonadecanoylamino)butanoyl]-[Glu14,Arg17,Pro21,Pro26]-h-amylin] | – | 0.255 | 4.5 | 1.16 | 0.674
5 | {C20 diacid-γGlu}-KCNTATCATQRLAEFLRHSSPNFGPILPPTNVGSNTY-NH2 (disulfide 2-7; SMILES CC[C@H](C)[C@H](NC(=O)[C@@H]1CCCN1C(=O)CNC(=O)[C@H](Cc1ccccc1)NC(=O)[C@H](CC(N)=O)NC(=O)[C@@H]1CCCN1C(=O)[C@H](CO)NC(=O)[C@H](CO)NC(=O)[C@H](Cc1c[nH]cn1)NC(=O)[C@H](CCCNC(=N)N)NC(=O)[C@H](CC(C)C)NC(=O)[C@H](Cc1ccccc1)NC(=O)[C@H](CCC(=O)O)NC(=O)[C@H](C)NC(=O)[C@H](CC(C)C)NC(=O)[C@H](CCCNC(=N)N)NC(=O)[C@H](CCC(N)=O)NC(=O)[C@@H](NC(=O)[C@H](C)NC(=O)[C@@H]1CSSC[C@H](NC(=O)[C@H](CCCCN)NC(=O)CC[C@H](NC(=O)CCCCCCCCCCCCCCCCCCC(=O)O)C(=O)O)C(=O)N[C@@H](CC(N)=O)C(=O)N[C@@H]([C@@H](C)O)C(=O)N[C@@H](C)C(=O)N[C@@H]([C@@H](C)O)C(=O)N1)[C@@H](C)O)C(=O)N[C@@H](CC(C)C)C(=O)N1CCC[C@H]1C(=O)N1CCC[C@H]1C(=O)N[C@H](C(=O)N[C@@H](CC(N)=O)C(=O)N[C@H](C(=O)NCC(=O)N[C@@H](CO)C(=O)N[C@@H](CC(N)=O)C(=O)N[C@H](C(=O)N[C@@H](Cc1ccc(O)cc1)C(N)=O)[C@@H](C)O)C(C)C)[C@@H](C)O, also called compound 6) | – | 0.128 | 5.7 | 0.729 | 0.996
6 | {C20 diacid-γGlu}-KCNTATCATQRLAEFLRHSSPNFGAPLSSTNVGSNTP-NH2 (disulfide 2-7; SMILES CC(C)C[C@H](NC(=O)[C@H](CCCNC(=N)N)NC(=O)[C@H](CCC(N)=O)NC(=O)[C@@H](NC(=O)[C@H](C)NC(=O)[C@@H]1CSSC[C@H](NC(=O)[C@H](CCCCN)NC(=O)CC[C@H](NC(=O)CCCCCCCCCCCCCCCCCCC(=O)O)C(=O)O)C(=O)N[C@@H](CC(N)=O)C(=O)N[C@@H]([C@@H](C)O)C(=O)N[C@@H](C)C(=O)N[C@@H]([C@@H](C)O)C(=O)N1)[C@@H](C)O)C(=O)N[C@@H](C)C(=O)N[C@@H](CCC(=O)O)C(=O)N[C@@H](Cc1ccccc1)C(=O)N[C@@H](CC(C)C)C(=O)N[C@@H](CCCNC(=N)N)C(=O)N[C@@H](Cc1c[nH]cn1)C(=O)N[C@@H](CO)C(=O)N[C@@H](CO)C(=O)N1CCC[C@H]1C(=O)N[C@@H](CC(N)=O)C(=O)N[C@@H](Cc1ccccc1)C(=O)NCC(=O)N[C@@H](C)C(=O)N1CCC[C@H]1C(=O)N[C@@H](CC(C)C)C(=O)N[C@@H](CO)C(=O)N[C@@H](CO)C(=O)N[C@H](C(=O)N[C@@H](CC(N)=O)C(=O)N[C@H](C(=O)NCC(=O)N[C@@H](CO)C(=O)N[C@@H](CC(N)=O)C(=O)N[C@H](C(=O)N1CCC[C@H]1C(N)=O)[C@@H](C)O)C(C)C)[C@@H](C)O, also called compound 5) | – | 0.162 | 1 | 0.16 | 0.374
